Paper PMC11720309, “Transcriptional regulation of miR528-PPO module by miR156 targeted SPLs orchestrates chilling response in banana”

T1: MaSPL4 (UniProt A0A804HZD8 1-178)
T1 sequence: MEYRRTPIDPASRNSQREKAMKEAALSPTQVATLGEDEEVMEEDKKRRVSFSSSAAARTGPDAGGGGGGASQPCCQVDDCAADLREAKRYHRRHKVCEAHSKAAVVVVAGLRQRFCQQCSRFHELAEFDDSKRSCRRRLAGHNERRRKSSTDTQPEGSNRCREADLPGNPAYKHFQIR

T2: MaSPL44 (UniProt A0A804KAB2 1-473)
T2 sequence: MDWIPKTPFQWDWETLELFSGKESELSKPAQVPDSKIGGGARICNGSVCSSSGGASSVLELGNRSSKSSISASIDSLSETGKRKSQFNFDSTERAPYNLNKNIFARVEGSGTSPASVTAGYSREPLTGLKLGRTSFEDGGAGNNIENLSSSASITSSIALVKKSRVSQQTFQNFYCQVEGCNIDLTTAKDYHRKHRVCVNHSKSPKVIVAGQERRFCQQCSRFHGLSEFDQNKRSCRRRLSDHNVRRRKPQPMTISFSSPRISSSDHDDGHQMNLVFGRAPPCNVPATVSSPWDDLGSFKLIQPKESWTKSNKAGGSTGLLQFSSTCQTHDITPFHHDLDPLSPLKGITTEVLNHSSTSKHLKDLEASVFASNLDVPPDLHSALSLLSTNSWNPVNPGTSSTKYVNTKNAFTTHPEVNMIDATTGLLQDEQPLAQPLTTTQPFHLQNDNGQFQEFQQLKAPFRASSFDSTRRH

T3: MaSPL5 (UniProt A0A804I0H4 1-393)
T3 sequence: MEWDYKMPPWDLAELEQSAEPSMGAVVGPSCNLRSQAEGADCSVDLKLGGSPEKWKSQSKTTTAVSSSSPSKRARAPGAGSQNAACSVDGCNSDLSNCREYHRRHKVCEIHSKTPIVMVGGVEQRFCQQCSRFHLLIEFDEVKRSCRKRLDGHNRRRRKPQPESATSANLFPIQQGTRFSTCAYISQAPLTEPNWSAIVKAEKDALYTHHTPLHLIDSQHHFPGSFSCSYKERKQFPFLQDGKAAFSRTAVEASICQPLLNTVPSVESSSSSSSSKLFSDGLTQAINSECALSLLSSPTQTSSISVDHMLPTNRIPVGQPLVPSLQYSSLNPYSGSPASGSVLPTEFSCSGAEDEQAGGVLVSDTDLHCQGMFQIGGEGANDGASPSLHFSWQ

B1: MamiR528pro-probe (dsDNA)
DNA 1: GCGCAGTACAGTGCAGTACTAAGATACTACACAAACCACACAATAGAAGTACCACTATC
DNA 2: GATAGTGGTACTTCTATTGTGTGGTTTGTGTAGTATCTTAGTACTGCACTGTACTGCGC
B2: MamiR528pro-mut-probe (dsDNA)
DNA 1: GCGCAAAAAAGTGCAAAAATAAGATACTACACAAACCACACAATAGAAAAAACACTATC
DNA 2: GATAGTGTTTTTTCTATTGTGTGGTTTGTGTAGTATCTTATTTTTGCACTTTTTTGCGC

Key:
Conditions in all cases: protein: recombinant; tags: GST (N-terminal, pGEX-4T-3); blunt
MaSPL4 [1] = molecular target: T1, MaSPL4; test: EMSA; Chemiluminescent EMSA Kit (Thermo Fisher); buffer, salt, pH and temperature not stated
MaSPL44 [2] = molecular target: T2, MaSPL44; test: as above
MaSPL5 [3] = molecular target: T3, MaSPL5; test: as above
MaSPL4 [4] = molecular target: T1, MaSPL4; test: competition; unlabeled competitor vs biotin-N1 (EMSA); Chemiluminescent EMSA Kit (Thermo Fisher); buffer, salt, pH and temperature not stated
MaSPL44 [5] = molecular target: T2, MaSPL44; test: as above
MaSPL5 [6] = molecular target: T3, MaSPL5; test: as above

Binder | binding result (MaSPL4 [1]) | binding result (MaSPL44 [2]) | binding result (MaSPL5 [3]) | binding result (MaSPL4 [4]) | binding result (MaSPL44 [5]) | binding result (MaSPL5 [6])
B1 | binds | binds | binds |  |  | 
B2 |  |  |  | no binding | no binding | no binding
